Consider one substance from patent US20190330296A1.

This test has as its target human GLP-1 receptor (human) (UniProt P43220). The test can be described thus: cell-based or functional assay.

Sequence of human GLP-1 receptor (human) (P43220 24-463): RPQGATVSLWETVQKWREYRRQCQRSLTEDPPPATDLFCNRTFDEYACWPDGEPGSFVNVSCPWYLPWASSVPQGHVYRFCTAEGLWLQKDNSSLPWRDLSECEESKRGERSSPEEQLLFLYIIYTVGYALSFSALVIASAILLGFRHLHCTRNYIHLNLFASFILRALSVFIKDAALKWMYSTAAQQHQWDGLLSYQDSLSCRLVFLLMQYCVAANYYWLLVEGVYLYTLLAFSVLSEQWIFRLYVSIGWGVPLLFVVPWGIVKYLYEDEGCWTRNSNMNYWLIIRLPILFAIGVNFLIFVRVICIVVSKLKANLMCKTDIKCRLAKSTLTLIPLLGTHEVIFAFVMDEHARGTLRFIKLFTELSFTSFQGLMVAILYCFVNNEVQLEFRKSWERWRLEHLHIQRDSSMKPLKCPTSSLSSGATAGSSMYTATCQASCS

In the case of Dulaglutide (Fc fusion), the Human GLP1R EC50 was 0.035 nM.
